Measurements from patent US20110123542A1.

Target: T1, CCR6 receptor on human cancer cell lines (PC3, HL60, HT-29, NB4) (human) (UniProt P51684)
T1 sequence (looked up): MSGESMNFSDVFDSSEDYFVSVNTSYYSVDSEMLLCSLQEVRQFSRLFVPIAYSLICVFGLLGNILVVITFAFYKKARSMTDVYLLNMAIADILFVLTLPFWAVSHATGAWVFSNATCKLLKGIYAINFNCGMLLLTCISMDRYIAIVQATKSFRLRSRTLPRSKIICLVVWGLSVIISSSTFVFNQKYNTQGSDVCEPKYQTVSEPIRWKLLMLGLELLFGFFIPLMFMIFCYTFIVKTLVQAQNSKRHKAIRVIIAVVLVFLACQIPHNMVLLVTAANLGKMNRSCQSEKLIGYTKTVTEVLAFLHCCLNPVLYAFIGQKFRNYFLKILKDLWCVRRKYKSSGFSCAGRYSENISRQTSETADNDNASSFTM
Assay: cell-based or functional assay

BrdU incorporation of PC3 cells, CCL20 5 and 50 ng/ml: 1.76 fold
adhesion of HL60 cells to collagen I, CCL20 250 ng/ml: 1.6 fold
adhesion of HL60 cells to fibronectin, CCL20 500 ng/ml: 2 fold
adhesion of PC3 cells to collagen I, CCL20 50 ng/ml: 2.2 fold
adhesion of PC3 cells to collagen I, CCL20 500 ng/ml: 2.09 fold
adhesion of PC3 cells to fibronectin, CCL20 500 ng/ml: 1.45 fold
Substance: CCL20 (PeproTech EC, London, UK) (from UniProt P78556 27-96) (ligand)
